Here are results for one molecule from paper PMC3388944.

This data set addresses T1, GST-IE(1-1487) (immediate-early protein IEP, full length) (Equine herpesvirus 1, UniProt P17473 1-1487).
T1 sequence: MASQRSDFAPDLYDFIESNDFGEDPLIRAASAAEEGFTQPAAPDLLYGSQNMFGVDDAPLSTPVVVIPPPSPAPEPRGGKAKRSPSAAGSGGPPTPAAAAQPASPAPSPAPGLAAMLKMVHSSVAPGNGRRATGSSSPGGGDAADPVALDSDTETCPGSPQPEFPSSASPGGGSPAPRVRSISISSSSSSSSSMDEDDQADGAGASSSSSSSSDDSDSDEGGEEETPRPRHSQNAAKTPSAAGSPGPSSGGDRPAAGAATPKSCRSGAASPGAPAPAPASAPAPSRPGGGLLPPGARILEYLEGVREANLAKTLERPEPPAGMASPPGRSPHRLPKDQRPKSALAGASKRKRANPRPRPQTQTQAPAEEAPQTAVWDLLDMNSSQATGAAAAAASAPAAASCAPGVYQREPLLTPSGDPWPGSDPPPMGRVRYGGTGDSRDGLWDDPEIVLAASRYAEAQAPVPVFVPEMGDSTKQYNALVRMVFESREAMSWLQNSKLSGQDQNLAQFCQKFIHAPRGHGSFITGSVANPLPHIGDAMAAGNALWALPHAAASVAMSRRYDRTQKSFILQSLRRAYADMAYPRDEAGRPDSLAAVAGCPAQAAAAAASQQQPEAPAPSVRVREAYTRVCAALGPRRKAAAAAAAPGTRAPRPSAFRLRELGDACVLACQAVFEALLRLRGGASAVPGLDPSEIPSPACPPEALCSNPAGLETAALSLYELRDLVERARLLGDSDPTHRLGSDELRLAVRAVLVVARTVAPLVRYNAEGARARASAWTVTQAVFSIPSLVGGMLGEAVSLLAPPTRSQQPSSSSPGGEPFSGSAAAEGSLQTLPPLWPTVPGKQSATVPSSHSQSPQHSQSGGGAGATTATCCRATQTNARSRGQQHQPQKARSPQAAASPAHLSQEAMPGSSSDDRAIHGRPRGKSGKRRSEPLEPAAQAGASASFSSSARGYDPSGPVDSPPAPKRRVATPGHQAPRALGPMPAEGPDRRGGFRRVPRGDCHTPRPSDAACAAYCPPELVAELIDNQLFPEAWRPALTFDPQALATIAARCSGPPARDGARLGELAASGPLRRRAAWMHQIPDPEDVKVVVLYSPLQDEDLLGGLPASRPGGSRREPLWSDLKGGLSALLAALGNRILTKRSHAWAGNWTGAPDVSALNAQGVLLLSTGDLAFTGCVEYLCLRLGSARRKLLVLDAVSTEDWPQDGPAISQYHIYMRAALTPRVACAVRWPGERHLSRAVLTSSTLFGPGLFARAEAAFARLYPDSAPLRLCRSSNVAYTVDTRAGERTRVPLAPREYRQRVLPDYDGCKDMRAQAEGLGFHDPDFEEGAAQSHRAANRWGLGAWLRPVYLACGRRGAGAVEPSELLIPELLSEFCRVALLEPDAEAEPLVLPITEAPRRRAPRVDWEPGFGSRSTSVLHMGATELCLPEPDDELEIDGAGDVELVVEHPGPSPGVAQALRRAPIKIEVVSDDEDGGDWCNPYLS
Put plainly: EMSA. On the technique in general: In EMSA bound probe runs differently from free probe, usually more slowly.

B1: wtIEBS probe (IE promoter -16 to +22) (dsDNA)
DNA 1: TTGCTTACCCATCGTAGCATCGCGGACTAGAGAGCCTT
DNA 2: TTAAGGCTCTCTAGTCCGCGATGCTACGATGGGTAAGC
Take B1: the binding result was “binds”.
